According to patent US20220002403A1:

Molecular target: human ILT4 haplotype 5 expressed on mouse 3A9 T cells (human) (UniProt Q8N423)
Assay: cell-based or functional assay

human ILT4 haplotype 5 expressed on mouse 3A9 T cells (human), sequence (Q8N423 other isoform, or with tags, fused parts or gaps): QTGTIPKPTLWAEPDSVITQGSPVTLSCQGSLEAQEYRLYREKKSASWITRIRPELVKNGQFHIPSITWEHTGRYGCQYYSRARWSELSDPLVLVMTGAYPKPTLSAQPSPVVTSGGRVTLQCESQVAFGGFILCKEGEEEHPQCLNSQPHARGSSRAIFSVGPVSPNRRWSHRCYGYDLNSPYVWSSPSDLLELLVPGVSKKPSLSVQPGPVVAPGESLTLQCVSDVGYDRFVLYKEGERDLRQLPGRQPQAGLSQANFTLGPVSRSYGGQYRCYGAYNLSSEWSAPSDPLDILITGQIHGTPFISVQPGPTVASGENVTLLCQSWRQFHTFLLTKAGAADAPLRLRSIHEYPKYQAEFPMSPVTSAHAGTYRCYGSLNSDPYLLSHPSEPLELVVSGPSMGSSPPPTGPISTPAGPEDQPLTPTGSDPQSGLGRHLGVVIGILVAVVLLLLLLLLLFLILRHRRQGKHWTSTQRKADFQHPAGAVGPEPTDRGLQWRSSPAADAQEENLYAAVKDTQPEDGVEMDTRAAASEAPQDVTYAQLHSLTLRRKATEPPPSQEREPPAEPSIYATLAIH

EC50 (IL-2 Repression Assay: rescue of IL-2 release from anti-CD3 stimulated ILT4 3A9 T cell transfectants, ELISA): 0.43 µg/mL
B1: 1E1(G4) (antibody, human IgG4 S228P, lambda, V domains shown)
VH: EVQLQQWGAGLLKPSETLSLTCAVYGGSFSGYYWSWIRQPPGKGLEWIGEINHAGSTNYNPSLKSRVTISVDTSKNQFSLKLSSVTAADTAVYYCARLPTRWVTTRYFDLWGRGTLVTVSS
VL: ESVLTQPPSVSGAPGQRVTISCTGSSSNIGAGYDVHWYQQLPGTAPKLLIYGDSNRPSGVPDRFSVSKSGASASLAITGLQAEDEADYYCQSFDNSLSAYVFGGGTQLTVLG
